Laboratory results published in PMC6168492.

What was measured:
[1] = molecular target: DIII of MSA (residues 381-584) with C-terminal GST (mouse); experiment: SPR; Biacore T200; albumin variants amine-coupled on CM5 (~200 or 500 RU); monomeric His-tagged hFcRn or mFcRn injected in serial dilutions; phosphate buffer (177 mM phosphate, 85 mM NaCl, 0.05% Tween 20) pH 5.5, 30 µl/min, 25 °C; 1:1 Langmuir model
[2] = molecular target: HSA K573P with C-terminal GST (human); experiment: as above
[3] = molecular target: MSA-hDI (MSA with human DI, residues 1-190 from HSA) with C-terminal GST (human | mouse); experiment: as above
[4] = molecular target: MSA-hLoopI + II (MSA N83T/L87M/S111N/P114R) with C-terminal GST (mouse); experiment: as above
[5] = molecular target: DIII of HSA (residues 381-585) with C-terminal GST (human); experiment: as above
[6] = molecular target: HSA N111S with C-terminal GST (human); experiment: as above
[7] = molecular target: HSA R114P with C-terminal GST (human); experiment: as above
[8] = molecular target: HSA-mDI (HSA with mouse DI, residues 1-190 from MSA) with C-terminal GST (mouse | human); experiment: as above
[9] = molecular target: HSA-mLoopI + II (HSA T83N/M87L/N111S/R114P) with C-terminal GST (human); experiment: as above
[10] = molecular target: MSA P573K with C-terminal GST (mouse); experiment: as above
[11] = molecular target: wild-type mouse serum albumin with C-terminal GST (mouse); experiment: SPR; albumin immobilised (200 RU) on CM5 chip by amine coupling, serial dilutions of monomeric His-tagged FcRn injected; pH 5.5, 0.005% Tween20, 30 µl/min, 25 °C; 1:1 Langmuir model
wild-type mouse serum albumin with C-terminal GST (mouse), sequence (P07724 25-608): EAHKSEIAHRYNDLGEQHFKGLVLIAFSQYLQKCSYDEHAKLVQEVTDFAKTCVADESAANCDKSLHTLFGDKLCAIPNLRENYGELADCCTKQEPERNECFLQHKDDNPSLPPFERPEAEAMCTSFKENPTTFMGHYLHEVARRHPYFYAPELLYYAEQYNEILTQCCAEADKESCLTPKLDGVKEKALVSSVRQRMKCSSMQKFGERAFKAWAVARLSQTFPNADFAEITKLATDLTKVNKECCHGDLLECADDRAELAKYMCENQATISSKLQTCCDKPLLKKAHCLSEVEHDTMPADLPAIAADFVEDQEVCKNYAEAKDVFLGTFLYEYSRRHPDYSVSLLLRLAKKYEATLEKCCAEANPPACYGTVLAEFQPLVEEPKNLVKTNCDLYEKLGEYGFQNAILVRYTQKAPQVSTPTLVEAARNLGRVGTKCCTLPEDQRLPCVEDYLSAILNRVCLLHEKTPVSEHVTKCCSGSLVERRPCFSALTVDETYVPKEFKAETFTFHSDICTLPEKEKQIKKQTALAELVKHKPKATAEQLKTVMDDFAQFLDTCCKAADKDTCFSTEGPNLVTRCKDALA

Row | Substance | Kd [1] [nM] | koff [1] [s⁻¹] | kon [1] [M⁻¹ s⁻¹] | Kd [2] [nM] | koff [2] [s⁻¹] | kon [2] [M⁻¹ s⁻¹] | Kd [3] [nM] | koff [3] [s⁻¹] | kon [3] [M⁻¹ s⁻¹] | Kd [4] [nM] | koff [4] [s⁻¹] | kon [4] [M⁻¹ s⁻¹] | also measured
1 | soluble monomeric His-tagged mouse neonatal Fc receptor (mFcRn) (from UniProt Q61559 22-297; P01887 21-119) | 620 | 0.0093 | 15000 | 1230 | 0.0197 | 16000 | 705 | 0.0148 | 21000 | 375 | 0.0075 | 20000 | 
2 | soluble monomeric His-tagged human neonatal Fc receptor (hFcRn) (from UniProt P55899 24-297; P61769 21-119) | 119 | 0.0057 | 48000 | 22.2 | 0.0006 | 27000 | 70.2 | 0.0047 | 67000 | 145 | 0.0074 | 51000 | Kd [5]: 3170 nM; koff [5]: 0.0349 s⁻¹; kon [5]: 11000 M⁻¹ s⁻¹; Kd [6]: 162 nM; koff [6]: 0.006 s⁻¹; kon [6]: 37000 M⁻¹ s⁻¹; Kd [7]: 554 nM; koff [7]: 0.0122 s⁻¹; kon [7]: 22000 M⁻¹ s⁻¹; Kd [8]: 1440 nM; koff [8]: 0.0202 s⁻¹; kon [8]: 14000 M⁻¹ s⁻¹; Kd [9]: 823 nM; koff [9]: 0.0214 s⁻¹; kon [9]: 26000 M⁻¹ s⁻¹; Kd [10]: 3670 nM; koff [10]: 0.0734 s⁻¹; kon [10]: 20000 M⁻¹ s⁻¹
3 | soluble mouse neonatal Fc receptor (mFcRn), His-tagged, monomeric (from UniProt Q61559 22-365; P01887 21-119) |  |  |  |  |  |  |  |  |  |  |  |  | Kd [11]: 324 nM; koff [11]: 0.0123 s⁻¹; kon [11]: 38000 M⁻¹ s⁻¹
